From PMC13129248 come the findings set out here.

The data set addresses DENV C (dengue virus capsid protein) (Dengue virus 2, strain New Guinea, UniProt O92835 1-100). In words: Trp fluorescence quenching and lifetime.

B1: C (ssDNA)
DNA: AAAGACCAACACCAAGAGGCACAGTAATGGACATT
B1: the binding result is given as “binds”.
